Data: patent publication US20250313819A1

Molecular target: poly-GA dipeptide repeat protein (human)
Test: MSD sandwich ELISA on neuron lysate, C9-patient vs KO line

ratio of signal from the C9-patient vs KO line: 2
Substance: anti-GA antibody (MABN889, Millipore)
